Bridges are numbered along the chain shown (N, C = ends). Where no end group is shown, it is not given here.
T1: recombinant human vasopressin V1B receptor (human, UniProt P47901 1-424)
T1 sequence (looked up): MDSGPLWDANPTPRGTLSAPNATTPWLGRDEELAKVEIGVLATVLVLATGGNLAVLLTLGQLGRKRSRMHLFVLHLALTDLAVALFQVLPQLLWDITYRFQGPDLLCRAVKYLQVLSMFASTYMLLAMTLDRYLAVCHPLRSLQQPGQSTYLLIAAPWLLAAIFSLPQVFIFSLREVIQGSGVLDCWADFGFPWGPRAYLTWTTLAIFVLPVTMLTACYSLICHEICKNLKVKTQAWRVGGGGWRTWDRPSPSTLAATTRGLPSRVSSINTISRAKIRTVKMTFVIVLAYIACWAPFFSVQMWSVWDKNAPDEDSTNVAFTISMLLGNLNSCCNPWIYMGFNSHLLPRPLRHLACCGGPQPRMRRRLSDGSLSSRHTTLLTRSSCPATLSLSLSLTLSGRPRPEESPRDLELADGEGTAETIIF

T2: recombinant human oxytocin receptor (human, UniProt P30559 1-389)
T2 sequence (looked up): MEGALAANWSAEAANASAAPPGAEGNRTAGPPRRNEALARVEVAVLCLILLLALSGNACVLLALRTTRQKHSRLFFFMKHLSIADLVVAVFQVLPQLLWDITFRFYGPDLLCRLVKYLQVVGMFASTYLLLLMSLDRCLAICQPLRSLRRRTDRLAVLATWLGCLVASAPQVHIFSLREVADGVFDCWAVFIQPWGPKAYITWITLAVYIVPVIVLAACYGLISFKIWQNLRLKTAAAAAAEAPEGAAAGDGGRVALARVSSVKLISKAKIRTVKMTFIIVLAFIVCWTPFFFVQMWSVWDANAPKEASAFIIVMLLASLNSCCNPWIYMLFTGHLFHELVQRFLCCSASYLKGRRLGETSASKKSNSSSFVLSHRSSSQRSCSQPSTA


Assays:
Assay in all cases: cell-based or functional assay
[1] = biological target: T1, recombinant human vasopressin V1B …
[2] = biological target: recombinant human vasopressin V2 receptor (human, UniProt P30518 1-371)
[3] = biological target: T2, recombinant human oxytocin receptor

Row | EC50 of receptor activation (intracellular calcium increase, calcium dye fluorescence imaging, RBL cells) [1] [nM] | EC50 of receptor activation (intracellular cAMP accumulation, HTRF, CHO cells) [2] [nM] | IC50 of receptor inhibition (calcium response to 30 nM oxytocin, calcium dye fluorescence imaging, ECV304 cells) [3] [nM] | Binder
1 | 0.94 | 42 | – | CYFRNCPAG-NH2 (disulfide 1-6; N-terminus assumed; SMILES C[C@H](NC(=O)[C@@H]1CCCN1C(=O)[C@@H]1CSSC[C@H](N)C(=O)N[C@@H](Cc2ccc(O)cc2)C(=O)N[C@@H](Cc2ccccc2)C(=O)N[C@@H](CCCNC(=N)N)C(=O)N[C@@H](CC(N)=O)C(=O)N1)C(=O)NCC(N)=O) [Squidtocin]
2 | 214 | – | 16000 | CFFRNCPPG-NH2 (disulfide 1-6; N-terminus assumed; SMILES N=C(N)NCCC[C@@H]1NC(=O)[C@H](Cc2ccccc2)NC(=O)[C@H](Cc2ccccc2)NC(=O)[C@@H](N)CSSC[C@@H](C(=O)N2CCC[C@H]2C(=O)N2CCC[C@H]2C(=O)NCC(N)=O)NC(=O)[C@H](CC(N)=O)NC1=O) [Pro-sepiatocin]
